Reference: patent publication US20250382359A1 (BYOMASS, published 2025)
Changes are numbered by the printed parent chain.

T1: GDF15 (ligand used in the GFRAL/RET cell assays) (UniProt Q99988 197-308, limits assumed)
T1 sequence (looked up): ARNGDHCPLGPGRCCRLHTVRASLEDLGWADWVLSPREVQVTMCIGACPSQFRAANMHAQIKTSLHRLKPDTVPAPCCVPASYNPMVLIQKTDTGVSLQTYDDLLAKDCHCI

T2: GDNF (UniProt P39905 78-211)
T2 sequence (looked up): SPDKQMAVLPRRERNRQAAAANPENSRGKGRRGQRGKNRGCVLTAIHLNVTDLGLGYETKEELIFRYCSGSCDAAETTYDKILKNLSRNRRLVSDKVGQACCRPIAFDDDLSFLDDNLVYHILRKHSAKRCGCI

T3: GDF10 (UniProt P55107 369-478)
T3 sequence (looked up): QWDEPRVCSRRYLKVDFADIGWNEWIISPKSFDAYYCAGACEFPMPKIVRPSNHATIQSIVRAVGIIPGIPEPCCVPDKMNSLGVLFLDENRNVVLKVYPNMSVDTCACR

T4: Human Activin A Fc (human, UniProt P08476 311-426)
T4 construct: not shown: Fc part
T4 sequence (looked up): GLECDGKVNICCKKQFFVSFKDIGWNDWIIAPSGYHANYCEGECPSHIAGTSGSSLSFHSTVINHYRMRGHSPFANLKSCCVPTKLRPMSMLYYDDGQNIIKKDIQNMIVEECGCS

T5: Human Activin B (human, UniProt P09529 293-407)
T5 sequence (looked up): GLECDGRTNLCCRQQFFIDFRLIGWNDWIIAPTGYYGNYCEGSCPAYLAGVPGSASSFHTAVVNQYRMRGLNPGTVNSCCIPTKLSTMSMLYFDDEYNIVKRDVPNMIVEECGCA

T6: Human BMP9 (human, UniProt Q9UK05 320-429)
T6 sequence (looked up): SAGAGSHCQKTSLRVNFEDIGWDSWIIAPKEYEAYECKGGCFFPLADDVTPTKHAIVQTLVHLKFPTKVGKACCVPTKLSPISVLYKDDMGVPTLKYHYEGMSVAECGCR

T7: Human BMP10 (human, UniProt O95393 317-424)
T7 sequence (looked up): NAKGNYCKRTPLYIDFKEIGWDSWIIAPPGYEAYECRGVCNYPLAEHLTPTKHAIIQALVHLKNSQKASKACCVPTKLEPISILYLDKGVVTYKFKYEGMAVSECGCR

T8: Human GDF15 Fc (human, UniProt Q99988 195-308, limits assumed, biotinylated (EZ-Link Sulfo-NHS-Biotinylation Kit) in the SPR assay)
T8 construct: also called human GDF15-Fc fusion; biotinylated Human GDF15 Fc; not shown: Fc part
T8 sequence: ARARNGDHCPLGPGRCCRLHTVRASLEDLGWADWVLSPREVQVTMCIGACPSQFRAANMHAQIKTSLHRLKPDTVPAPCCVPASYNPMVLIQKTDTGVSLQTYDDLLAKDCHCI

B1: GDF15 antibody agent Clone A, IgG (antibody, V domains shown)
VH: QVQLQESGPGLVKPSQTLSLTCTVSGGSITSGGSYWSWIRQHPGKGLEWIGAIVYSGSTYYNPSLKSRVTISVDTSKNQFSLKLSSVTAADTAVYYCARGVEYQHFDYWGQGTLVTVSS
VL: not shown
B2: GDF15 antibody agent Clone C, IgG (antibody, V domains shown)
VH: B1 VH with T30S, S34Y, S58H, D107S, Y108L
VL: not shown
B3: GDF15 antibody agent Clone D, IgG (antibody, V domains shown)
VH: B1 VH with T30N, S34Y, S37T, V54Y, Y60V, D107N, Y108E
VL: not shown
B4: GDF15 antibody agent Clone G, IgG (antibody, V domains shown)
VH: QVQLVQSGAEVKKPGSSVKVSCKASGGTFQGYAISWARQAPGQGLEWMGGIIPPYATANYAQKFQGRVTITADESTSTAYMELSSLRSEDTAVYYCARGVGELHLDVWGQGTMVTVSS
VL: not shown
B5: GDF15 antibody agent Clone K, IgG (antibody, V domains shown)
VH: QVQLVQSGAEVKKPGASVKVSCKASGYTFTNEGISWVRQAPGQGLEWMGWISAYTADTFYAQKLQGRVTMTTDTSTSTAYMELRSLRSDDTAVYYCARTRHDTSGLRFDYWGQGTLVTVSS
VL: DIQMTQSPSSVSASVGDRVTITCRASQGIDSWLAWYQQKPGKAPKLLIYAASSLQSGVPSRFSGSGSGTDFTLTISSLQPEDFATYYCQQVHSFPITFGGGTKVEIKR
B6: GDF15 antibody agent Clone L, IgG (antibody, V domains shown)
VH: B5 VH with T30A, N31S, E32Y, G33D, S35I, Y54L, T55S, A56G, F59V, L106I
VL: B5 VL
B7: GDF15 antibody agent Clone M, IgG (antibody, V domains shown)
VH: QVQLVQSGAEVKKPGASVKVSCKASGYTFDSYGINWVRQAPGQGLEWMGWISAYSGDTAYAQELQGRVTMTTDTSTSTAYMELRSLRSDDTAVYYCVRDTQYGGSPYWGQGTLVTVSS
VL: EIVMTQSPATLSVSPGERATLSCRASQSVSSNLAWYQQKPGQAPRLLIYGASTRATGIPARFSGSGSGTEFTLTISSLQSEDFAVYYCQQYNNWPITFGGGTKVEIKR
B8: GDF15 antibody agent Clone N, IgG (antibody, V domains shown)
VH: B7 VH with D30T, S31D, N35F, S52T, A59H, E63K
VL: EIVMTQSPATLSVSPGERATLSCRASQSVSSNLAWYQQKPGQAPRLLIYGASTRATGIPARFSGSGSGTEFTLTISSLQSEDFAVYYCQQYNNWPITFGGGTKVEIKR
B9: GDF15 antibody agent Clone Q, IgG (antibody, V domains shown)
VH: B1 VH with T30S, S34I, S37T, V54A, V101I
VL: not shown

Molecular target: T1, GDF15 (ligand used in the GFRAL/RET …)
Experiment: cell-based or functional assay

Row | Binder | GDF15-GFRAL RET pERK IC50 (pM) | GDF15-GFRAL-RET Luciferase IC50 (pM)
1 | B1 | 102 | 75
2 | B2 | 145 | 39.6
3 | B3 | 50.4 | 58.7
4 | B4 | 66.7 | 97.1
5 | B5 | 187 | 813
6 | B6 | 13.5 | 274
7 | B7 | 88.7 | –
8 | B8 | 99.7 | –

Molecular target: T2, GDNF
Experiment: BLI Octet; IgG on sensor

Row | Binder | binding result
9 | B1 | no binding (tested: 100 nM)
10 | B2 | no binding (tested: 100 nM)
11 | B3 | no binding (tested: 100 nM)
12 | B9 | no binding (tested: 100 nM)
13 | B4 | no binding (tested: 100 nM)

Molecular target: GDF8 (UniProt O14793 267-375)
Experiment: BLI Octet; IgG on sensor

Row | Binder | binding result
14 | B1 | no binding (tested: 100 nM)
15 | B2 | no binding (tested: 100 nM)
16 | B3 | no binding (tested: 100 nM)
17 | B9 | no binding (tested: 100 nM)
18 | B4 | no binding (tested: 100 nM)
19 | B5 | no binding (tested: 100 nM)
20 | B6 | no binding (tested: 100 nM)
21 | B7 | no binding (tested: 100 nM)
22 | B8 | no binding (tested: 100 nM)

Molecular target: T3, GDF10
Experiment: BLI Octet; IgG on sensor

Row | Binder | binding result
23 | B9 | no binding (tested: 100 nM)
24 | B5 | no binding (tested: 100 nM)
25 | B6 | no binding (tested: 100 nM)
26 | B7 | no binding (tested: 100 nM)
27 | B8 | no binding (tested: 100 nM)

Molecular target: T9, GDF11 (UniProt O95390 299-407)
T9 construct: Also used as ligand in the Activin 2B receptor/SMAD reporter assay
T9 sequence (O95390 299-407 limits assumed): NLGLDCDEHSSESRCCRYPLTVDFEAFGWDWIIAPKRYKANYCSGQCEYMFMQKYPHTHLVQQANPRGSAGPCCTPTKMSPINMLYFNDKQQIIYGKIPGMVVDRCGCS
Experiment: BLI Octet; IgG on sensor

Row | Binder | binding result
28 | B1 | no binding (tested: 100 nM)
29 | B2 | no binding (tested: 100 nM)
30 | B3 | no binding (tested: 100 nM)
31 | B9 | no binding (tested: 100 nM)
32 | B4 | no binding (tested: 100 nM)
33 | B5 | no binding (tested: 100 nM)
34 | B6 | no binding (tested: 100 nM)
35 | B7 | no binding (tested: 100 nM)
36 | B8 | no binding (tested: 100 nM)

Molecular target: T4, Human Activin A Fc
Experiment: BLI Octet; IgG on sensor

Row | Binder | binding result
37 | B4 | no binding (tested: 100 nM)
38 | B5 | no binding (tested: 100 nM)
39 | B6 | no binding (tested: 100 nM)
40 | B7 | no binding (tested: 100 nM)
41 | B8 | no binding (tested: 100 nM)

Molecular target: T5, Human Activin B
Experiment: BLI Octet; IgG on sensor

Row | Binder | binding result
42 | B1 | no binding (tested: 100 nM)
43 | B3 | no binding (tested: 100 nM)
44 | B4 | no binding (tested: 100 nM)
45 | B5 | no binding (tested: 100 nM)
46 | B6 | no binding (tested: 100 nM)
47 | B7 | no binding (tested: 100 nM)
48 | B8 | no binding (tested: 100 nM)

Molecular target: T6, Human BMP9
Experiment: BLI Octet; IgG on sensor

Row | Binder | binding result
49 | B5 | no binding (tested: 100 nM)
50 | B6 | no binding (tested: 100 nM)
51 | B7 | no binding (tested: 100 nM)
52 | B8 | no binding (tested: 100 nM)

Molecular target: T7, Human BMP10
Experiment: BLI Octet; IgG on sensor

Row | Binder | binding result
53 | B2 | no binding (tested: 100 nM)
54 | B3 | no binding (tested: 100 nM)
55 | B9 | no binding (tested: 100 nM)
56 | B5 | no binding (tested: 100 nM)
57 | B6 | no binding (tested: 100 nM)
58 | B7 | no binding (tested: 100 nM)
59 | B8 | no binding (tested: 100 nM)

Molecular target: T8, Human GDF15 Fc
Experiment: BLI Octet; IgG on sensor, 100 nM antigen (avid)
Description: Briefly, ForteBio affinity measurements were performed by loading IgGs on-line onto AHC sensors. Sensors were equilibrated off-line in assay buffer for 30 min and then monitored on-line for 60 seconds for baseline establishment. Sensors with loaded IgGs were exposed to 100 nM antigen for 3 minutes, and afterwards were transferred to assay buffer for 3 min for off-rate measurement. All kinetics were analyzed using the 1:1 binding model.

Row | Binder | Kd [nM]
60 | B1 | 0.263
61 | B2 | 0.254
62 | B3 | 0.263
63 | B4 | 0.256
64 | B5 | 0.271
65 | B6 | 0.325
66 | B7 | 0.317
67 | B8 | 0.336

Molecular target: T2, GDNF
Experiment: BLI Octet; IgG on sensor, 100 nM antigen (avid)

Row | Binder | Kd [nM]
68 | B5 | 333
69 | B6 | 229
70 | B7 | 31.4
71 | B8 | 2.56

Molecular target: T3, GDF10
Experiment: BLI Octet; IgG on sensor, 100 nM antigen (avid)

Row | Binder | Kd [nM]
72 | B4 | 36.8

Molecular target: T4, Human Activin A Fc
Experiment: BLI Octet; IgG on sensor, 100 nM antigen (avid)

Row | Binder | Kd [nM]
73 | B1 | 7.34
74 | B2 | 6.48
75 | B3 | 7.87

Molecular target: T5, Human Activin B
Experiment: BLI Octet; IgG on sensor, 100 nM antigen (avid)

Row | Binder | Kd [nM]
76 | B2 | 132
77 | B9 | 172

Molecular target: T6, Human BMP9
Experiment: BLI Octet; IgG on sensor, 100 nM antigen (avid)

Row | Binder | binding result
78 | B1 | binds
79 | B2 | binds
80 | B3 | binds
81 | B9 | binds
82 | B4 | binds

Molecular target: T7, Human BMP10
Experiment: BLI Octet; IgG on sensor, 100 nM antigen (avid)

Row | Binder | binding result
83 | B1 | binds
84 | B4 | binds
